In paper PMC8344073:

T1: RORα (UniProt P35398 1-523)
T1 sequence: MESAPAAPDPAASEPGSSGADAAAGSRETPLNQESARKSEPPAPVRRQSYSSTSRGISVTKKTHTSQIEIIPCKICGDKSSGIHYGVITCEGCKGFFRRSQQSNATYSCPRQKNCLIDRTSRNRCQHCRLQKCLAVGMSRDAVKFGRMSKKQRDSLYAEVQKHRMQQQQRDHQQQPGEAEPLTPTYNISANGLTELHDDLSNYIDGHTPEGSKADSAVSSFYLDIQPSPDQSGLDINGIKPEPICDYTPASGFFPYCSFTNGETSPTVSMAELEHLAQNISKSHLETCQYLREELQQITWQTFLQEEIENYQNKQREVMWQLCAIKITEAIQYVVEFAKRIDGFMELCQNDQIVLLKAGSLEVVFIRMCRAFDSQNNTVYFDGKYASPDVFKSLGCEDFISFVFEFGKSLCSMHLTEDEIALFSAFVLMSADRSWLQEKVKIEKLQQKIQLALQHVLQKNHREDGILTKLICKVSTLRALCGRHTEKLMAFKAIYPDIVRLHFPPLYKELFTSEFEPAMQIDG

B1: SULT1E1 ERE (dsDNA)
DNA 1: GAGGGTCAAGATAAACATT
DNA 2: AATGTTTATCTTGACCCTC
B2: SULT1E1 RORE (dsDNA)
DNA 1: AGAGAATTGAGGTCACAG
DNA 2: CTGTGACCTCAATTCTCT

Experiments:
[1] = target: ERα (UniProt P03372 1-595); test: EMSA
[2] = target: T1, RORα; test: EMSA

ERα, sequence (P03372 whole entry): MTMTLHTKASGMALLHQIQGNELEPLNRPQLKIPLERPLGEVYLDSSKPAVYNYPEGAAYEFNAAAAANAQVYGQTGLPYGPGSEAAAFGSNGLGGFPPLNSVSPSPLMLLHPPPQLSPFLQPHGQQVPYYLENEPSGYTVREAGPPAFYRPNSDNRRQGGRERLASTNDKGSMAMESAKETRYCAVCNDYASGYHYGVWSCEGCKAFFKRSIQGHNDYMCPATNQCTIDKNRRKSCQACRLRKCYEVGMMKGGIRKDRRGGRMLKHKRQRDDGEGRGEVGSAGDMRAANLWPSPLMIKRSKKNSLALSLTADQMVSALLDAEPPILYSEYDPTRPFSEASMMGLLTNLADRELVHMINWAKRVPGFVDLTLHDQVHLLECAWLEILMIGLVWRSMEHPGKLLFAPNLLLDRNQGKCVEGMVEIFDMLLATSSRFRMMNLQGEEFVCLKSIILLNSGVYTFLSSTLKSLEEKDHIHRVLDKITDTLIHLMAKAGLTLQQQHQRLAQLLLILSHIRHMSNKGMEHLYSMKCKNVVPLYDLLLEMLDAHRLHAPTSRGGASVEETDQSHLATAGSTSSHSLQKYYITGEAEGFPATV

Binder	binding result [1]	binding result [2]
B1	binds	–
B2	–	binds
